A value given as a limit tells only on which side of the number the result lay.

The target of experiment [1] is AviTag-His6-OAZ-GSY-SPM-Ctag (wt, with C175A) (human | Neisseria meningitidis serogroup B (strain MC58)) (UniProt Q9JYV5). Description: SPR; Biacore T200; biotinylated AviTag-OAZ-GSY-SPM variants immobilised with the Biotin CAPture Kit, ODC flowed over; HBS with 2 mM TCEP and 0.02 mM PLP; 25 °C; 1:1 binding model. In general terms: SPR reads the build-up and loss of mass on a sensor chip optically.

Experiment [2] addresses His6-OAZ-GSY-SPM-Ctag (human | Neisseria meningitidis serogroup B (strain MC58)) (UniProt Q9JYV5). Description: cross-linking; NeissLock: Ca2+-induced aspartic anhydride on OAZ reacts with the docked partner; purified proteins mixed at 10 µM each or as indicated (AZI 2.5 µM each; Fig. 4b 0.5 µM each; 30 µM ODC with 10 µM OAZ-Y-SPM), 37 °C, HBS pH 7.4 with 2 mM TCEP, 10 mM CaCl2 unless varied (pH 6.5-8.5, 0.5-10 mM Ca2+, TBS, lyophilised probe); SDS-PAGE with Coomassie, intact ESI-MS, tryptic LC-MS/MS.

B1: His6-ODC-Ctag (human Ornithine Decarboxylase) (enzyme)
chain: NNFGNEEFDCHFLDEGFTAKDILDQKINEVSSSDDKDAFYVADLGDILKKHLRWLKALPRVTPFYAVKCNDSKAIVKTLAATGTGFDCASKTEIQLVQSLGVPPERIIYANPCKQVSQIKYAANNGVQMMTFDSEVELMKVARAHPKAKLVLRIATDDSKAVCRLSVKFGATLRTSRLLLERAKELNIDVVGVSFHVGSGCTDPETFVQAISDARCVFDMGAEVGFSMYLLDIGGGFPGSEDVKLKFEEITGVINPALDKYFPSDSGVRIIAEPGRYYVASAFTLAVNIIAKKIVLKEQTGSDDEDESSEQTFMYYVNDGVYGSFNCILYDHAHVKPLLQKRPKPDEKYYSSSIWGPTCDGLDRIVERCDLPEMHVGDWMLFENMGAYTVAAASTFNGFQRPTIYYVMSGPAWQLMQQFQ
The Kd is the concentration at which binding is half-saturated. Read a high Kd as lower affinity. As for B1, the Kd in experiment [1] worked out at 120 nM. In experiment [2], this molecule gave a coupling yield after 2 h, lyophilized OAZ-GSY-SPM of 51%; a coupling yield after 2 h, untreated control of 48%; a coupling yield at 0.5 mM Ca2+ compared to 10 mM Ca2+ after 2 h of 78%; a coupling yield in TBS compared to HBS after 2 h of 95%. Further, the half-time of the conjugation reaction at pH 7.0 in experiment [2] is less than 2 min.

B2: ODC ΔN ΔC 4KR with K92 re-introduced (enzyme)
chain: DCHFLDEGFTAKDILDQKINEVSSSDDKDAFYVADLGDILKKHLRWLKALPRVTPFYAVKCNDSRAIVRTLAATGTGFDCASKTEIQLVQSLGVPPERIIYANPCKQVSQIRYAANNGVQMMTFDSEVELMKVARAHPKAKLVLRIATDDSKAVCRLSVKFGATLRTSRLLLERAKELNIDVVGVSFHVGSGCTDPETFVQAISDARCVFDMGAEVGFSMYLLDIGGGFPGSEDVKLKFEEITGVINPALDKYFPSDSGVRIIAEPGRYYVASAFTLAVNIIAKKIVLKEQTGSDDEDESSEQTFMYYVNDGVYGSFNCILYDHAHVKPLLQKRPKPDEKYYSSSIWGPTCDGLDRIVERCDLPEMHVGDWMLFENMGAYTVAAASTFNGFQRPTIYYVMSGPAWQLMQQFQ
The molecule B2 yielded a conjugation compared to wild-type ODC in experiment [2] of 89%.

(Values after publication PMC7846742.)
